Results on four molecules are retold here after publication PMC10952772 (The Febs Journal, 2022).

B3: Human Scribble (SCRIB) PDZ2 domain (860-950) (domain or fragment)
chain: RHVACLARSERGLGFSIAGGKGSTPYRAGDAGIFVSRIAEGGAAHRAGTLQVGDRVLSINGVDVTEARHDHAVSLLTAASPTIALLLEREA

Like-named read-outs stand apart in the source and are kept apart here.

The subject of data set [1] is PDZ. The note with it: phosphorylated at the −2 position; ref [51], [52]; cited from earlier work.
Data set [2] has as its target B3. Description: ITC.
In data set [3] the target is T1, Human Scribble (SCRIB) PDZ1 domain (728-815) (human, UniProt Q14160 728-815). The experiment in a line: ITC.
For data set [4], the target named is T2, Human Scribble (SCRIB) PDZ4 domain (1099-1203) (human, UniProt Q14160 1099-1203).
T2 sequence: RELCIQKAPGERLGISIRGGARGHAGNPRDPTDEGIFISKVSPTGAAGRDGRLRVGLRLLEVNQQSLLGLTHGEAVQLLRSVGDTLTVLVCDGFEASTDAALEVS
Description: ITC.

Data set [5] concerns the target T3, Human Scribble (SCRIB) PDZ3 domain (1002-1094) (human, UniProt Q14160 1002-1094).
T3 sequence: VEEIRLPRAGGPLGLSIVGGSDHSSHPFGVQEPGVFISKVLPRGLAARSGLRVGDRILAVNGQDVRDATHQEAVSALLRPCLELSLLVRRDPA
Description: ITC.

The target of data set [6] is B3. Description: ITC. The source holds these as a separate data set.
Data set [7] concerns the target T1, Human Scribble (SCRIB) PDZ1 domain …. Description: ITC. This is another data set of the same source.
Data set [8] concerns the target T2, Human Scribble (SCRIB) PDZ4 domain …. The experiment in a line: ITC. The source holds these as a separate data set.
For data set [9], the target named is T3, Human Scribble (SCRIB) PDZ3 domain …. Description: ITC. The source holds these as a separate data set.
Data set [10] deals with the molecule itself. Description: AUC.

T1 sequence (Q14160 728-815): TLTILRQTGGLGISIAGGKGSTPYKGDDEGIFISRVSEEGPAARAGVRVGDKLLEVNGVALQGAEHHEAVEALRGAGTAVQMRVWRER

Regarding “HTLV‐1 Tax1: oncogenic Tax1 protein of HTLV‐1”, the “effect of phosphorylation at the −2 position of PBM on PDZ recognition” value in data set [1] was “phosphorylation inhibiting PDZ recognition”.

B1: Superpeptide (RSWFETWV) (peptide)
peptide: RSWFETWV
Consider B1, for which the Kd in data set [2] turned out to be 2.2 µM; in data set [3] it was 0.6 µM; in data set [4] it was 12.6 µM; in [5], 1.6 µM. The dH is -7.04 kcal/mol in data set [2], -3.72 kcal/mol in data set [3], -2.9 kcal/mol in data set [4] and -11.3 kcal/mol in [5]. For the same molecule, the “stoichiometry N” value in data set [2] worked out at 1; in data set [3] it was 0.9; in data set [4] it was 1.1; in [5] it was 0.9.

B2: HTLV-1 Tax1 PBM peptide (KHFRETEV, residues 346-353) (peptide)
peptide: KHFRETEV
For B2, the Kd in [6] turned out to be 15.4 µM; in data set [7] it was 7.8 µM; in [8], 40.2 µM; in data set [9], 9.1 µM. Besides, the dH in data set [6] is -4.08 kcal/mol; in data set [7] it was -4.21 kcal/mol; in [8] it was -2.17 kcal/mol; in data set [9], -13.3 kcal/mol. The “stoichiometry N” value in data set [6] was 1.1; in data set [7] it was 1.1; in data set [8], 1; in data set [9], 0.9.
With B3, in [10], the “stoichiometry N” value came out at 2.
